Measurements published in article PMC9756944.

Tested on: HupA (HU homologue) (Streptomyces coelicolor)
Experiment: EMSA (agarose)
Details: Buffer B: 50 mM NaH2PO4 pH 8.1, 300 mM NaCl, 10% glycerol, 0-40 uM HupA, 120 ng (3.6 nM) pUC19, 3 min room temperature then 15 min 37 C, 1% agarose in TAE …

Substance	binding (relaxed by E. coli topoisomerase I (NEB), enzyme inactivated at 65 C)	binding (bound at 15 uM HupA, 3.6 nM plasmid, 300 mM NaCl)
pUC19 relaxed by E. coli topoisomerase I	40 µM	
pUC19 negatively supercoiled		15 µM
